Test results taken from paper PMC3398199 (Molecular Cell, 2012).

Target: His-tagged human recombinant full-length NEMO (human, UniProt Q9Y6K9 1-419)
Assay: SEC

His-tagged human recombinant full-length NEMO, sequence (Q9Y6K9 whole entry): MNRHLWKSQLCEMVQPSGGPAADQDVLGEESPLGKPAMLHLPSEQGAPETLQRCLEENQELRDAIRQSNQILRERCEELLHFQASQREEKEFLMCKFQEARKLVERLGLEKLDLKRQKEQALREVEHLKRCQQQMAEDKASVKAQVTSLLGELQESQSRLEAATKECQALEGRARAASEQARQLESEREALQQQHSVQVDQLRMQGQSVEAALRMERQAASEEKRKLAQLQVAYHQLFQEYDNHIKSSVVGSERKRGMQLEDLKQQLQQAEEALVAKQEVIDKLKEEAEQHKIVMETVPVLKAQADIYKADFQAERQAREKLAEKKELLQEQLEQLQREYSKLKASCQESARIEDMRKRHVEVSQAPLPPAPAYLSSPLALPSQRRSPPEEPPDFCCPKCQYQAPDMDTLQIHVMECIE

binding result: binds
B1: recombinant FL-human IκBα (natural protein, UniProt P25963 1-317, looked up)
chain: MFQAAERPQEWAMEGPRDGLKKERLLDDRHDSGLDSMKDEEYEQMVKELQEIRLEPQEVPRGSEPWKQQLTEDGDSFLHLAIIHEEKALTMEVIRQVKGDLAFLNFQNNLQQTPLHLAVITNQPEIAEALLGAGCDPELRDFRGNTPLHLACEQGCLASVGVLTQSCTTPHLHSILKATNYNGHTCLHLASIHGYLGIVELLVSLGADVNAQEPCNGRTALHLAVDLQNPDLVSLLLKCGADVNRVTYQGYSPYQLTWGRPSTRIQQQLGQLTLENLQMLPESEDEESYDTESEFTEFTEDELPYDDCVFGGQRLTL
